In PMC11561763 one finds stoichiometry N data, which are given here for one substance.

The target of the assay is glutathione S-transferase fusion from pGEX-6P1 possessing a C-terminal optimized tetracysteine motif (GST-TC12). Description: SEC; Superdex 75 Increase 10/300, 50 mM Tris pH 7.5, 150 mM NaCl; quenched one-pot ligation mixtures (Ub or SUMO, SrtCrAsH, eSrtA, GST-TC12); peaks collected and analysed by ESI-MS.

Chain of glutathione S-transferase fusion from pGEX-6P1 possessing a C-terminal optimized tetracysteine motif (GST-TC12) (P08515 2-218): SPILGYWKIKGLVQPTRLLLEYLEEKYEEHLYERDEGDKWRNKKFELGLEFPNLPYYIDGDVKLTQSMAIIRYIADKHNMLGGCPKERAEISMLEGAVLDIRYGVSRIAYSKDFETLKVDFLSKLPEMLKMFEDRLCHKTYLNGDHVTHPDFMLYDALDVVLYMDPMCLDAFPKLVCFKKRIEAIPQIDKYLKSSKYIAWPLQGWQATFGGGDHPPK

For orientation: stoichiometry N means the number of molecules, sites or subunits per partner or assembly. In the case of “glutathione S-transferase fusion from pGEX-6P1 possessing a C-terminal optimized tetracysteine motif (GST-TC12) (natural protein)”, the stoichiometry N came to 2.
